Changes are numbered by the printed parent chain.
Legend:
Conditions in all cases: EMSA: 20 mM Tris pH 8, 60 mM KCl, 1 mM EDTA, 12% glycerol, 2 mM DTT, 1 ug poly(dI-dC), 12.5 ng (legend: 12.5 nM) Cy5-DNA, +/-5 mM Ca2+, 1% agarose 0.5x TAE …
[1] = target: T1, pMarR (Gp0.7) WT (cyanophage P-SSP7) (UniProt Q58N47); experiment: DNase I footprinting
T1 sequence: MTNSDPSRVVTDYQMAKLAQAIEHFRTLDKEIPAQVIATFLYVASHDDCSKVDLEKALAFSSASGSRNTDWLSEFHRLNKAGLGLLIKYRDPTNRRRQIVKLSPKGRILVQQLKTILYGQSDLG

[2] = target: T1, pMarR (Gp0.7) WT (cyanophage P-SSP7); experiment: EMSA
[3] = target: T2, pMarR G106A G106A (cyanophage P-SSP7) (UniProt Q58N47); experiment: EMSA
T2 sequence: T1 sequence with G106A

[4] = target: T3, pMarR R67A R67A (cyanophage P-SSP7) (UniProt Q58N47); experiment: EMSA
T3 sequence: T1 sequence with R67A

[5] = target: T4, pMarR S66A S66A (cyanophage P-SSP7) (UniProt Q58N47); experiment: EMSA
T4 sequence: T1 sequence with S66A

Sequence	binding [1]	Kd [2] [nM]	binding [3]	binding [4]	binding [5]
CAGCATCAATACCTGGTAGGACATTTTCAACAGTTCCTAAAAAAATATCCCCGATTTGATATTGACCTTGTGCGACGATTAATTCATCAACTTGATCATCTGTGAGTAGTGCTGCAATACGCGCCTGCTCAGCTATTACAATTTGCTGAGACATAAAAATTTTAAAGTATGTTTTGAATTTTTGAAAATCGATAAAAAGTAAATAATTACATATTTAATTTTTCGCTAGCAATTTCTTGAAAGC (double strand) [rne footprint fragment (Pi+ and part of Pi)]	binds				
CAGCATCAATACCTGGTAGGACATTTTCAACAGTTCCTAAAAAAATATCCCCGATTTGATATTGACCTTGTGCGACGATTAATTCATCAACTTGATCATCTGTGAGTAGTGCTGCAATACGCGCCTGCTCAGCTATTACAATTTGCTGAGAC (double strand) [rne Pi+]		320	binds	no binding	binds

Source: paper PMC9692554
